Source: paper PMC2905227 (Journal of the American Chemical Society, 2010)

Molecular target: T1, wild-type E. coli ribonucleotide reductase α2 subunit (E. coli, UniProt P00452 1-761)
T1 sequence (looked up): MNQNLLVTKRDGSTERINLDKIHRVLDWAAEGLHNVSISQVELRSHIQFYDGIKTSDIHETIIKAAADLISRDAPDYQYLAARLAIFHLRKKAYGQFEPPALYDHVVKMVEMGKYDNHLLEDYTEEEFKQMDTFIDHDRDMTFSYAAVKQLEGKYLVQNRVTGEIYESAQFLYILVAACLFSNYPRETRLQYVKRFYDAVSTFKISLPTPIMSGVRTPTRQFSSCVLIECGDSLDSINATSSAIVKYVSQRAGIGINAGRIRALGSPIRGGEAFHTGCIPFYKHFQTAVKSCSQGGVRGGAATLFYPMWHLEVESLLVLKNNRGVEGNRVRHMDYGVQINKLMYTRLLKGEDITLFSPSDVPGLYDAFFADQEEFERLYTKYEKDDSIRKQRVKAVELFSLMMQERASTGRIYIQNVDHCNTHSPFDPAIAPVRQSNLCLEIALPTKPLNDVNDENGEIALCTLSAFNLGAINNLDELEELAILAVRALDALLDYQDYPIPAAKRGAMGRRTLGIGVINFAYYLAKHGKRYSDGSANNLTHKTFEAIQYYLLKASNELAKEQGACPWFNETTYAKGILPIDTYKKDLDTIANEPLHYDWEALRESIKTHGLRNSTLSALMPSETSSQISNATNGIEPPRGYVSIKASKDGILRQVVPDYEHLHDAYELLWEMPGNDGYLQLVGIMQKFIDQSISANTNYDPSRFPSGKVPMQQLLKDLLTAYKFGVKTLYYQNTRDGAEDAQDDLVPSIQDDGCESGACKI
Assay: competitive inhibition of enzyme activity

Kd: 400 ± 60 nM
B1: [NO2Y122]-β2 (enzyme)
chain: AYTTFSQTKNDQLKEPMFFGQPVNVARYDQQKYDIFEKLIEKQLSFFWRPEEVDVSRDRIDYQALPEHEKHIFISNLKYQTLLDSIQGRSPNVALLPLISIPELETWVETWAFSETIHSRSYTHIIRNIVNDPSVVFDDIVTNEQIQKRAEGISSYYDELIEMTSYWHLLGEGTHTVNGKTVTVSLRELKKKLYLCLMSVNALEAIRFYVSFACSFAFAERELMEGNAKIIRLIARDEALHLTGTQHMLNLLRSGADDPEMAEIAEECKQECYDLFVQAAQQEKDWADYLFRDGSMIGLNKDILCQYVEYITNIRMQAVGLDLPFQTRSNPIPWINTWLVSDNVQVAPQEVEVSSYLVGQIDSEVDTDDLSNFQL
modifications: 3-nitrotyrosine (NO2Y) in place of Y122; diferric cluster (met form, 2.9 Fe/β2)
